In experiment [1] the target is taxol-stabilized microtubules polymerized from bovine brain tubulin (bovine) (UniProt Q6B856).
Experiment [2] shares this target. Put plainly: co-sedimentation; microtubule pelleting assay as with ATP but with 5 mM AMPPNP: 1 uM Kif5A, tubulin 0-8 uM (WT) or 0-20 uM (mutants), 20 uM taxol, room temperature 15 min; fraction Kif5A bound by western blot densitometry.

Chain of human Kif5A, first 560 amino acids, wild type, fused to EGFP and a C-terminal 6xHIS tag (Q12840 1-560): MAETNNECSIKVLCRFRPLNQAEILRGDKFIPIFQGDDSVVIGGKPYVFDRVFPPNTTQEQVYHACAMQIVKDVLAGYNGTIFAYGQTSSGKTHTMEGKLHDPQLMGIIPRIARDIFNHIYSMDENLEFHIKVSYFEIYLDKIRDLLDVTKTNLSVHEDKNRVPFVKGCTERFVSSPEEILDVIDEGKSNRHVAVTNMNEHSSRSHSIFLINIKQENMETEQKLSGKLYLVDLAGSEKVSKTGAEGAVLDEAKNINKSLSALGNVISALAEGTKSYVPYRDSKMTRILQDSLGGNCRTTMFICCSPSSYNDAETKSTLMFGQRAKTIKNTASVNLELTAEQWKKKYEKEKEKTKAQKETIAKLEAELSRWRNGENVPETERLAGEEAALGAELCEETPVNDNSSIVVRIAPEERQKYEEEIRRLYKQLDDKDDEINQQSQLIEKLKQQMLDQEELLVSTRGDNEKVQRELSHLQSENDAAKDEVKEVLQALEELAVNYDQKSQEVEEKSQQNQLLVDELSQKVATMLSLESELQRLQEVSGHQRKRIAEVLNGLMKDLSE

In experiment [1], “human Kif5A, first 560 amino acids, E251K, fused to EGFP and a C-terminal 6xHIS tag (from UniProt Q12840 1-560) (domain or fragment)” gave a -fold increase of the ATPase rate by MTs (MT-stimulated over basal; malachite green phosphate assay, microtubules from 2 uM tubulin) of 6.2 fold. As for “human Kif5A, first 560 amino acids, M198T, fused to EGFP and a C-terminal 6xHIS tag (from UniProt Q12840 1-560) (domain or fragment)”, the -fold increase of the ATPase rate by MTs (MT-stimulated over basal; malachite green phosphate assay, microtubules from 2 uM tubulin) in experiment [1] amounted to 42.6 fold. In the case of “human Kif5A, first 560 amino acids, R204Q, fused to EGFP and a C-terminal 6xHIS tag (from UniProt Q12840 1-560) (domain or fragment)”, the -fold increase of the ATPase rate by MTs (MT-stimulated over basal; malachite green phosphate assay, microtubules from 2 uM tubulin) in experiment [1] was 10.6 fold.

Substance “human Kif5A, first 560 amino acids, S202N, fused to EGFP and a C-terminal 6xHIS tag (from UniProt Q12840 1-560) (domain or fragment)” gave a -fold increase of the ATPase rate by MTs (MT-stimulated over basal; malachite green phosphate assay, microtubules from 2 uM tubulin) in experiment [1] of 5.4 fold.

“human Kif5A, first 560 amino acids, S203C, fused to EGFP and a C-terminal 6xHIS tag (from UniProt Q12840 1-560) (domain or fragment)” displayed a -fold increase of the ATPase rate by MTs (MT-stimulated over basal; malachite green phosphate assay, microtubules from 2 uM tubulin) in experiment [1] of 23.5 fold.

In experiment [2], “human Kif5A, first 560 amino acids, wild type, fused to EGFP and a C-terminal 6xHIS tag (from UniProt Q12840 1-560) (domain or fragment)” displayed a percent bound at saturation of 100%. The -fold increase of the ATPase rate by MTs (MT-stimulated over basal; malachite green phosphate assay, microtubules from 2 uM tubulin) in experiment [1] came to 33.2 fold.

The values above are taken from article PMC5498027.
